Tests used:
[1] = system: colon cancer cell line (CT26) tumor; assay: In vivo cancer growth inhibition, CT26 model, CL7 and anti-PD-1; design: species or system BALB/c mice; conditions: CL7 10 mg/kg, anti-PD-1 10 mg/kg i.p. D12, D15, D19, D22; 25 days
Experimental: In order to identify anticancer effects of the anti-CD300c monoclonal antibody CL7 under in vivo conditions, a colon cancer cell line (CT26) at 2×10^5 cells was transplanted by subcutaneous injection into 8-week-old BALB/c mice to prepare syngeneic mouse tumor models. Animal breeding and experiments were all conducted in a SPF facility. On day 12 (D12) after transplantation of the colon cancer cell line, the mice with a tumor size of 50 mm^3 to 100 mm^3 were administered the anti-CD300c monoclonal antibody and an anti-PD-1 antibody purchased from BioXcell alone or in combination, and for a control group, the mice were administered the same amount of phosphate buffered saline (PBS). Specifically, the mice were intraperitoneally injected with the respective antibodies (CL7: 10 mg/kg; and anti-PD-1 antibody: 10 mg/kg) alone or in combination, twice a week for two weeks (a total of 4 times on D12, D15, D19, and D22). The tumor volume was measured for 25 days.

[2] = system: B16F10 melanoma cells; assay: In vivo cancer growth inhibition, B16F10 melanoma model; design: species or system C57BL/6 mice; conditions: CL7 25 mg/kg, α-PD-1 10 mg/kg, α-CTLA4 4 mg/kg i.p. twice a week, 4 times; 20 days
Experimental: In order to identify whether the anti-CD300c monoclonal antibody CL7 is effective in other carcinomas in addition to a CT26 colon cancer mouse model, an additional experiment was conducted with melanoma mouse models. B16F10 melanoma cells at 7×10^5 cells were transplanted by subcutaneous injection into 8-week-old male C57BL/6 mice to prepare syngeneic mouse tumor models. Animal breeding and experiments were all conducted in a SPF facility. On day 8 after transplantation of the melanoma cell line, the mice with a tumor size of 50 mm^3 to 100 mm^3 were intraperitoneally injected with 25 mg/kg of CL7, 10 mg/kg of α-PD-1, and 4 mg/kg of α-CTLA4. More specifically, the mice were injected, twice a week for 2 weeks (over a total of 4 times), with each of the anti-CD300c monoclonal antibody, the anti-PD-1 antibody, the anti-CD300c monoclonal antibody+the anti-PD-1 antibody (Combo), and the anti-CD300c monoclonal antibody+the anti-PD-1 antibody+the anti-CTLA-4 antibody (Triple), and for a control group, the mice were injected with the same amount of phosphate buffered saline (PBS). The cancer size was measured for 20 days.

B1: CL7: anti-CD300c monoclonal antibody, VH3VL1 phage library, VH SEQ ID 327, VL SEQ ID 328 (antibody, V domains shown)
VH: EVQLLESGGGLVQPGGSLRLSCAASGFTFSRYAMSWVRQAPGKGLEWVSAISGSGGSTYYADSVKGRFTISRDNSKNTLYLQMNSLRAEDTAVYYCARSSQGIFDIWGQGTLVTVSS
VL: QSVLTQPPSASGTPGQRVTISCSGNNIGTRRVHWYQQLPDTAPKLLIYSKNNRPSGVPDRFSGSKSGTSASLAISGLRSEDEADYYCAAWDDSLSGPVFGGGTKLTVL
modifications: CL7 Heavy Chain Variable Region; CL7 Light Chain Variable Region
cancer growth (tumor volume) [1]: inhibited | cancer growth (cancer size) [2]: inhibited
